Test results as given in patent US20240360216A1 (NOVOPROTEIN SCIENTIFIC, published 2024).

T1: monkey CD3E protein (Examples 4.2 and 7) (monkey, UniProt Q95LI5 22-117)
T1 construct: extracellular domain
T1 sequence (looked up): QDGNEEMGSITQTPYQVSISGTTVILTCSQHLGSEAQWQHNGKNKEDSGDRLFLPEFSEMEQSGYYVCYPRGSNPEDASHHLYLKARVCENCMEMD

B1: CD3 full-length antibody CQ54 (antibody, V domains shown)
VH: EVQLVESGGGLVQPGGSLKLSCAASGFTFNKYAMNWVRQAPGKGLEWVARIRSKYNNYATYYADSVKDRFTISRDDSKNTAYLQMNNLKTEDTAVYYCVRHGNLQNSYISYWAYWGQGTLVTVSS
VL: QTVVTQEPSLTVSPGGTVTLTCGSSTGPVTGGNYPNWVQQKPGQAPRGLIGGTKFLAPGTPARFSGSLLGGKAALTLSGVQPEDEAEYYCVLWESNRWVFGGGTKLTVLT
notes: Includes huVH5 and huVL5
B2: OKT3 antibody (control antibody) (antibody, V domains shown)
VH: not shown
VL: QIVLTQSPAIMSASPGEKVTMTCSASSSVSYMNWYQQKSGTSPKRWIYDTSKLASGVPAHFRGSGSGTSYSLTISGMEAEDAATYYCQQWSSNPFTFGSGTKLEINR

Tests used:
[1] = target: T1, monkey CD3E protein (Examples 4.2 and 7); assay: ELISA on monkey CD3E
[2] = target: T2, human CD3E protein (Example 4.1) (human, UniProt P07766 23-126); assay: Fortebio (BLI), antibody on protein A sensor, CD3E diluted from 100 nM
T2 construct: extracellular domain
T2 sequence (P07766 23-126): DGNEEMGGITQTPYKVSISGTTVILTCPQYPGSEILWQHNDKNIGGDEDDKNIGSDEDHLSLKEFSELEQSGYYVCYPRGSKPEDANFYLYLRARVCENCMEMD

[3] = target: T3, human CD3 on Jurkat cells (human CD3+ cell line) (human, UniProt P07766 23-207); assay: flow cytometry on Jurkat cells, anti hFC-APC detection
T3 construct: whole, on cells; Also used for the T cells of human PBMC in the CD69 assays; also called human CD3 positive cells; CD3 on T cells of PBMC
T3 sequence (P07766 23-207): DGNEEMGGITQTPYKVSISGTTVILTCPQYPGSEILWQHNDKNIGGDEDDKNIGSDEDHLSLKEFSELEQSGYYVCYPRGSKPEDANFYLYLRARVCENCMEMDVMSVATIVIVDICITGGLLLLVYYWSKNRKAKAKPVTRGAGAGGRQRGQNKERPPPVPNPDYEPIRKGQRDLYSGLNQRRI

[4] = target: T1, monkey CD3E protein (Examples 4.2 and 7); assay: ELISA

Binder	EC50 [1] [µg/mL]	Kd [2] [nM]	koff [2] [s⁻¹]	kon [2] [M⁻¹ s⁻¹]	EC50 [3] [µg/mL]	binding result [4]
B1	0.375	0.97	0.000604	621000	0.023	
B2						no binding
